Data on six molecules can be found in patent publication US20020061531, “Detection of binding factors with fluorescence polarization” (published 2002).

For data set [1], the target named is SSB protein, FITC-labeled (UniProt P0AGE0 P0AGE0:2-178). In words: CE mobility shift of FITC-SSB, anisotropy change only ~0.02; pH 9.1. As to conditions: tags: FITC (5.3 dye per protein), Sigma; chain copies: tetramer (stated).
For data set [2], the target named is T1, HIV-1 reverse transcriptase (p66/p51) (Human immunodeficiency virus 1, UniProt P04585;P04585 P04585:588-1147,P04585:588-1027). In words: CE/LIF; two complex peaks; lower binding constant than RT 26; 1xTBE. The settings on record: tags: Worthington Biochemicals; chain copies: heterodimer (stated).
The target in data set [3] is T2, SSB protein (UniProt P0AGE0 P0AGE0:2-178). In words: FP; CE/LIFP anisotropy 0.05 to 0.25; 25 mM Na2B4O7 pH 9.1. The settings on record: tags: Sigma; unlabeled; chain copies: tetramer (stated); label: fluorescein.
In data set [4] the target is T2, SSB protein. Kind of data set: CE mobility; 25 mM Na2B4O7 pH 9.1, SSB in running buffer; Hill fit. As to conditions: tags: Sigma; unlabeled; chain copies: tetramer (stated); label: fluorescein.
The target in another data set is trp repressor (Escherichia coli, UniProt P0A881 P0A881:2-108). In words: FP; CE/LIFP polarization 0.11 free to 0.25 with repressor; trp binding buffer pH 7.6.
For data set [5], the target named is T2, SSB protein. Kind of data set: FP; 1:1 complex; mobility and anisotropy gave similar values; 2:1 complex also seen; A=0.23. As to conditions: tags: Sigma; unlabeled; chain copies: tetramer (stated); label: fluorescein.
Data set [6] concerns the target T1, HIV-1 reverse transcriptase (p66/p51).
Data set [7] addresses MMLV reverse transcriptase (Moloney murine leukemia virus, UniProt P03355 P03355:660-1330).

Like-named read-outs stand apart in the source and are kept apart here.

T2 sequence (P0AGE0 2-178, one chain of several): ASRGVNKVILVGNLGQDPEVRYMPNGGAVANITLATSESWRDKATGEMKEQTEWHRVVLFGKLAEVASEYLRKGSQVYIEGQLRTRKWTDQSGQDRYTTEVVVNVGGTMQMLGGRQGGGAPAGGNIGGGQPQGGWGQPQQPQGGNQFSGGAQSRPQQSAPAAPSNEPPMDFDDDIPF
Sequence of SSB protein, FITC-labeled (P0AGE0 2-178, one chain of several): as above

TTTTTTTTTTTTTTTTTT (ssDNA) [d(pT)18]: the binding result in data set [1] is recorded as “binds”.

B1: RT 12 aptamer (ssDNA)
DNA: ATCTACTGGATTAGCGATACTCGATTAGGTCCCCTGCCGCTAAACCATACCGCGGTAACTTGAGCAAAATCACCACTGCAGGGG
As to B1, in data set [2], the binding result is “binds”. On to CGCGATACGCC (ssDNA) [F-11-mer], for which the results for the Ka in the data set with SSB protein [3] and with SSB protein [4] were ~5e+06 M⁻¹ and ~4.4e+06 M⁻¹, respectively.

B2: trp operator 25 bp (dsDNA)
DNA 1: ATCGAACTAGTTAACTAGTACGCAA
DNA 2: TTGCGTACTAGTTAACTAGTTCGAT
On to B2, for which the binding result with trp repressor is recorded as “binds”.

For the molecule CCTTAAGCTTCCTCAACCACTTACCATACTCGAGATT (ssDNA) [F-37-mer], the Ka with SSB protein [5] is ~2e+07 M⁻¹.

B3: RT 26 aptamer (ssDNA)
DNA: ATCCGCCTGATTAGCGATACTTACGTGAGCGTGCTGTCCCCTAAAGGTGATACGTCACTTGAGCAAAATCACCTGCAGGGG
Take B3: the binding result is “binds” in data set [6] and “no binding” in data set [7].
